Patent publication US20210070872A1 (AGENUS, published 2021)

Each binder was assayed against T1, biotinylated GITR (human, UniProt Q9Y5U5 26-161, limits assumed, biotinylated (sites not given)) (assay: BLI (Octet), biotin-GITR on streptavidin tips, antibody supernatant).
T1 construct: also called GITR-bio; Biotin-GITR
T1 sequence: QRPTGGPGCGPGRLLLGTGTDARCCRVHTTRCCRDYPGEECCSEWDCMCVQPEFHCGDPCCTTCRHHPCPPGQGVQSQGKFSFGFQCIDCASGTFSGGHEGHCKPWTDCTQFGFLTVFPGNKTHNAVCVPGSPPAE
Protocol: Several hundred germlined antibodies were selected based on binding kinetics as determined by Octet measurements (Octet RED 96 system; ForteBio™ Inc., Menlo Park, Calif.). The experimental procedure was configured according to the instruction manual of the instrument. Biotin-GITR was bound to Streptavidin biosensor (SA) and PBS (pH 7.4) was used as a blank control. Briefly, the interaction analyses were conducted at 30° C. in running buffer (PBS, 0.05% Tween, pH7.4). Sensor tips were pre-wet for 10 minutes in running buffer immediately prior to use, and the micro plates used in the Octet were filled with 200 μl of sample or buffer per well and agitated at 800 rpm. For the experiments, commercially available precoated SA tips were used. Biotinylated GITR was loaded onto the ForteBio SA fibers in PBS pH7.4 for 10 minutes and washed for 4 minutes. For the association phase, the ligand-coated SA tips were immersed for 5 minutes in cell culture supernatant that was diluted 1:10 in running buffer prior to the measurement. Dissociation of the antibody-antigen complex was measured in wells containing the Octet buffer alone for 5 minutes. After each run, the tips were regenerated with Glycine (10 mM, pH 2.0). Affinity, Kₒₙ and Koff were determined with Octet evaluation software v6.3 using a 1:1 binding model with local full fitting.

| Binder | Kd | koff | kon |
| --- | --- | --- | --- |
| germline variant antibody 10 (H1916A11 / K1916A11) (antibody, V domains shown, IGHG1/IGKC expression vectors; measured from CHO culture supernatant; also called Antibody ID 10) VH: QVQLVQSGAEVKKPGASVKVSCKASGYTFTEYAMYWVRQAPGQGLEWMGLIRTYSGGVSYNQKFRGRVTMTVDKSISTAYMELSRLRSDDTAVYYCAKSGTVRGFAYWGQGTLVTVSS VL: DIVMTQSPDSLAVSLGERATINCKSSQSLLNSSNQKNYLSWYQQKPGQPPKLLIYWASTRESGVPDRFSGSGSGTDFTLTISSVQAEDVAVYHCQNDYSYPYTFGQGTKLEIK | 0.911 nM | 0.00056 s⁻¹ | 615000 M⁻¹ s⁻¹ |
| germline variant antibody 1 (H1916A01 / K1916A01) (antibody, V domains shown, IGHG1/IGKC expression vectors; measured from CHO culture supernatant; also called Antibody ID 1) VH: QVQLVQSGTEVKKPGASVKVSCKGSGYTFTEYAMYWVRQAPGQGLEWIGVIRTYSGGVTYNQKFQGRATMTVDTSISTAYMELSRLRSDDTAVYYCAKSGTVRGFAYWGQGTLVTVSS VL: DIVMTQSPDSLAVSLGERATINCKSSQSLLNSGNQKNYLTWYHQKPGQPPKMLIYWASTRESGVPDRFSGSGSGTDFTLTISSVQAEDVAVYHCQNDYSYPYTFGQGTKLEIK | 0.744 nM | 0.000348 s⁻¹ | 468000 M⁻¹ s⁻¹ |
| germline variant antibody 2 (H1916A03 / K1916A03) (antibody, V domains shown, IGHG1/IGKC expression vectors; measured from CHO culture supernatant; also called Antibody ID 2) VH: QVQLVQSGAEVKKPGASVKVSCKASGYTFTEYAMHWVRQAPGQGMEWIGLIRTYSGGVSYNQKFRGRATMTVDKSISTAYMELSRLRSDDTAVYYCAKSGTVRGFAYWGQGTLVTVSS VL: DIVMTQSPDSLAVSLGERATINCKSSQSLLNSGNQKNYLSWYHQKPGQPPKLLIYWASTRESGVPDRFSGSGSGTDFTLTISSVQAEDVAVYYCQNEYSFPYTFGQGTKLEIK | 4.23 nM | 0.00234 s⁻¹ | 553000 M⁻¹ s⁻¹ |
| germline variant antibody 4 (H1916A05 / K1916A05) (antibody, V domains shown, IGHG1/IGKC expression vectors; measured from CHO culture supernatant; also called Antibody ID 4) VH: QVQLVQSGAEVKKPGASVKVSCKASGYTFTEYAMYWVRQAPGQSLEWMGLIRTFSGDVSYNQKFQDRVTMTVDKSISTAYMELSRLRSDDTAVYYCAKSGTVRGFAYWGQGTLVTVSS VL: DIVMTQSPDSLAVSLGERATINCKSSQSLLNSSNQKNYLSWYHQKPGQPPKLLIYWASTRESGVPDRFTGSGSGTDFTLTISSVQAEDVAVYYCQNDYSYPYTFGQGTKLEIK | 1.43 nM | 0.000501 s⁻¹ | 351000 M⁻¹ s⁻¹ |
| germline variant antibody 6 (H1916A07 / K1916A07) (antibody, V domains shown, IGHG1/IGKC expression vectors; measured from CHO culture supernatant; also called Antibody ID 6) VH: QVQLVQSGAEVKKPGASVKVSCKGSGYTFTEYAMYWVRQAPGQGLEWMGLIRTFSGGVSYNQKFKGRATMTVDTSISTAYMELSRLRSDDTAVYYCAKSGTVRGFAYWGQGTLVTVSS VL: DIVMTQSPDSLAVSLGERATINCKSSQSLLNSGNQKNYLSWYQQKPGQPPKMLIYWASTRESGVPDRFTGSGSGTDFTLTISSLQAEDVAVYHCQNDYSYPYTFGQGTKLEIK | 2.7 nM | 0.000579 s⁻¹ | 214000 M⁻¹ s⁻¹ |
| germline variant antibody 9 (H1916A10 / K1916A10) (antibody, V domains shown, IGHG1/IGKC expression vectors; measured from CHO culture supernatant; also called Antibody ID 9) VH: QVQLVQSGAEVKKPGASVKVSCKASGYTFTGYAMYWVRQAPGQGLEWMGLIRTYSGEVSYNQKFRGRATMTVDKSISTAYMELSRLRSDDTAVYYCAKSGTVRGFAYWGQGTLVTVSS VL: DIVMTQSPDSLAVSLGERATINCKSSQSLLNSGNQKNYLTWYQQKPGQPPKMLIYWASTRESGVPDRFSGSGSGTDFTLTISSLQAEDVAVYHCQNDYSFPYTFGQGTKLEIK | 2.68 nM | 0.000784 s⁻¹ | 293000 M⁻¹ s⁻¹ |
| germline variant antibody 11 (H1916Al2 / K1916A12) (antibody, V domains shown, IGHG1/IGKC expression vectors; measured from CHO culture supernatant; also called Antibody ID 11) VH: QVQLVQSGAEVKKPGASVKVSCKGSGYTFTDYAMHWVRQAPGQGLEWMGLIRTYSGGVSYNQKFRGRVTMTVDTSISTAYMELSRLRSDDTAVYYCAKSGTVRGFAYWGQGTLVTVSS VL: DIVMTQSPDSLAVSLGERATINCKSSQSLLNSSNQKNYLSWYQQKPGQPPKLLIYWASTRESGVPDRFSGSGSGTDFTLTISSVQAEDVAVYHCQNDYSFPYTFGQGTKLEIK | 2.1 nM | 0.000847 s⁻¹ | 403000 M⁻¹ s⁻¹ |
| germline variant antibody 15 (H1916B05 / K1916B05) (antibody, V domains shown, IGHG1/IGKC expression vectors; measured from CHO culture supernatant; also called Antibody ID 15) VH: QVQLVQSGAEVKKPGASVKVSCKGSGYTFTDYAMYWVRQAPGQGLEWIGVIRTFSGDVSYNQKFRERATMTVDKSISTAYMELSRLRSDDTAVYYCAKSGTVRGFAYWGQGTLVTVSS VL: DIVMTQSPDSLAVSLGERATINCKSSQSLLNSGNQKNYLSWYQQKPGQPPKLLIYWASTRESGVPDRFTGSGSGTDFTLTISSLQAEDVAVYHCQNDYSYPYTFGQGTKLEIK | 2.22 nM | 0.000616 s⁻¹ | 278000 M⁻¹ s⁻¹ |
| germline variant antibody 16 (H1916B06 / K1916B06) (antibody, V domains shown, IGHG1/IGKC expression vectors; measured from CHO culture supernatant; also called Antibody ID 16) VH: QVQLVQSGTEVKKPGASVKVSCKASGYTFTGYAMYWVRQAPGQGLEWIGLIRTFSGGVTYNQKFRERVTMTVDKSISTAYMELSRLRSDDTAVYYCAKSGTVRGFAYWGQGTLVTVSS VL: DIVMTQSPDSLAVSLGERATINCKSSQSLLNSGNQKNYLTWYHQKPGQPPKLLIYWASTRESGVPDRFTGSGSGTDFTLTISSVQAEDVAVYHCQNDYSYPYTFGQGTKLEIK | 1.47 nM | 0.000523 s⁻¹ | 356000 M⁻¹ s⁻¹ |
